Measurements taken from the supplement of paper PMC10065799, “High-throughput profiling of sequence recognition by tyrosine kinases and SH2 domains using bacterial peptide display” (eLife, 2023).

These sequences were tested against MERTK (UniProt Q12866) (assay: phosphorylation enrichment, bacterial display (enrichment ratio); higher = better substrate or ligand; peptides without Tyr show the background).
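Also: 11-residue human phosphosite peptides and single-mutation variants displayed on the E. coli surface, counted by deep sequencing, each peptide's frequency after selection divided by its frequency in the unselected input library; frequency after pTyr selection over input frequency; kinase dosed for 20-30% of maximal phosphorylation in three min.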

Chain of MERTK (Q12866 whole entry, looked up): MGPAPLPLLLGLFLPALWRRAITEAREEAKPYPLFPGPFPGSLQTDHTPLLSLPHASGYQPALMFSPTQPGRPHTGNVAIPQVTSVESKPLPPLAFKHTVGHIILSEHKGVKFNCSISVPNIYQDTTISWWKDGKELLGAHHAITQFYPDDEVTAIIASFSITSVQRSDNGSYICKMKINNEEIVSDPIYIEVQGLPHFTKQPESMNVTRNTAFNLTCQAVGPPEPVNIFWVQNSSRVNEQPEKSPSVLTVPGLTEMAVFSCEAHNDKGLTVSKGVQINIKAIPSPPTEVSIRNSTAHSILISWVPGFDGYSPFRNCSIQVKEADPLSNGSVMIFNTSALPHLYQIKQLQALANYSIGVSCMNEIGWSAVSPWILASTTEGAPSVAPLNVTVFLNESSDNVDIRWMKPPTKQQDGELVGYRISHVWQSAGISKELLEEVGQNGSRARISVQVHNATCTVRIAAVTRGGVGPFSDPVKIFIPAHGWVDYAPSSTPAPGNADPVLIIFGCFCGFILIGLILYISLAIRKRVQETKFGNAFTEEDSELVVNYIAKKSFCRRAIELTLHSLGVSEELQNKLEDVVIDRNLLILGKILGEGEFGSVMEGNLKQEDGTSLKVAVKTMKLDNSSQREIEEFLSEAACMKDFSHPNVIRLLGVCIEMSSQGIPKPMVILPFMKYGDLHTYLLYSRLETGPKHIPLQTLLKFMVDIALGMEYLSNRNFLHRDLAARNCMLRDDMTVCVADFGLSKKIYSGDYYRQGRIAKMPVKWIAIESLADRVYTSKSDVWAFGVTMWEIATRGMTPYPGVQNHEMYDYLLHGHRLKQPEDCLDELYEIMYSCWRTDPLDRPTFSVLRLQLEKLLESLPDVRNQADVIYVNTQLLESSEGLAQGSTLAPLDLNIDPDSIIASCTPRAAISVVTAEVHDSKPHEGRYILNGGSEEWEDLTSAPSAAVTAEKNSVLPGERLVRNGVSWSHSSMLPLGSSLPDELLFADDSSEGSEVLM

Sequence	phosphorylation enrichment
KNNDGYTDFAE [MCFD2_Y135_I136T_YF]	0.42
LITTLYISFLG [KCNQ1_Y267_G269S]	0.902
FKEIVYAVSSD [DCX_Y70_G67E]	1.93
RGKDSYETSQL [SPP1_Y225]	0.5
LKKLEYLNLAL [LRRC6_Y70]	0.296
QNAGDYFDLFG [PTPN11_Y62_T59A_YF]	1.71
QSHKVYVQHLL [POR_Y604]	0.594
IHSGIYYKPES [L2HGDH_Y102]	11.7
TEAEPYFCSLR [NPHS1_Y1138_R1140C_YF]	0.48
PDNEPYIFKVF [PIK3AP1_Y553]	0.725
LKGQVYILVRE [ASS1_Y359_G362V]	0.375
RNAAEYLLSSG [ABL1_Y139]	0.294
EDGCIYPGTIA [SMN1_Y109_A111G]	0.529
VNKIFHPDFIV [LIG3_Y768_Y768H_YF]	0.432
ALKWGYTVKGI [OAT_Y158_R154L]	0.304
GISDEYHVIRH [GCDH_Y398]	0.339
DFFDLYGGQKF [PTPN11_Y66_E69Q_YF]	0.567

Sequence	phosphorylation enrichment
FPLAEYTEVKT [ALDH1A3_Y497_A493P_YF]	0.4
VSSSDYFSFVL [USP24_Y2138_Y2134S]	4.39
QEGPEYWDQNT [HLA-A_Y83_E87N]	0.625
LSDGPYSNSFE [EPOR_Y485_P488S_YF]	0.858
SSMIDYNTLEK [MYOC_Y479_P481T]	0.408
GEDEPYSEPYA [APBA1_Y183]	0.531
NWGKKYPTCNS [PTPRZ1_Y53]	0.43
HEVHIYEKSGA [ARPC1B_Y35]	0.77
FSAPNYCYRCG [PPP2CA_Y265]	0.423
YQSKHYACIRQ [TIMP3_Y182]	0.534
HNVAIYEGFAL [ACTC1_Y168_P166A_YF]	8.57
ILGTYYETGSI [PAX2_Y73_R71T]	3.6
ILGTFYETGSI [PAX2_Y73_R71T_YF]	0.568
FESPRYLQVHI [FANCA_Y488]	0.495
REEIKYMLWLS [OTC_Y55_G50R]	0.734
ANVKWYRSGRE	0.474

Each sequence was assayed on c-Abl (mouse) in the same assay as above.

Sequence	phosphorylation enrichment
KNNDGYTDFAE [MCFD2_Y135_I136T_YF]	0.731
LITTLYISFLG [KCNQ1_Y267_G269S]	1.64
FKEIVYAVSSD [DCX_Y70_G67E]	13.7
RGKDSYETSQL [SPP1_Y225]	0.313
LKKLEYLNLAL [LRRC6_Y70]	0.574
QNAGDYFDLFG [PTPN11_Y62_T59A_YF]	1.44
QSHKVYVQHLL [POR_Y604]	0.806
IHSGIYYKPES [L2HGDH_Y102]	18.7
TEAEPYFCSLR [NPHS1_Y1138_R1140C_YF]	0.814
PDNEPYIFKVF [PIK3AP1_Y553]	1.19
LKGQVYILVRE [ASS1_Y359_G362V]	0.921
RNAAEYLLSSG [ABL1_Y139]	0.353
EDGCIYPGTIA [SMN1_Y109_A111G]	0.868
VNKIFHPDFIV [LIG3_Y768_Y768H_YF]	0.6
ALKWGYTVKGI [OAT_Y158_R154L]	0.659
GISDEYHVIRH [GCDH_Y398]	0.569
DFFDLYGGQKF [PTPN11_Y66_E69Q_YF]	0.866

Sequence	phosphorylation enrichment
FPLAEYTEVKT [ALDH1A3_Y497_A493P_YF]	0.709
VSSSDYFSFVL [USP24_Y2138_Y2134S]	4.78
QEGPEYWDQNT [HLA-A_Y83_E87N]	1.25
LSDGPYSNSFE [EPOR_Y485_P488S_YF]	1.2
SSMIDYNTLEK [MYOC_Y479_P481T]	0.486
GEDEPYSEPYA [APBA1_Y183]	0.845
NWGKKYPTCNS [PTPRZ1_Y53]	0.839
HEVHIYEKSGA [ARPC1B_Y35]	1.69
FSAPNYCYRCG [PPP2CA_Y265]	0.452
YQSKHYACIRQ [TIMP3_Y182]	0.648
HNVAIYEGFAL [ACTC1_Y168_P166A_YF]	9.06
ILGTYYETGSI [PAX2_Y73_R71T]	1.16
ILGTFYETGSI [PAX2_Y73_R71T_YF]	0.587
FESPRYLQVHI [FANCA_Y488]	0.949
REEIKYMLWLS [OTC_Y55_G50R]	0.944
ANVKWYRSGRE	0.587
